Assay results as given in article PMC12106642 (Nature Communications, 2025).
Several values for one entry are separate records, joined by “and”; a condition that tells them apart may be missing. Equal entries are not always repeated.

Molecular target: the molecule itself
Assay: high-speed atomic force microscopy

B1: Human Recombinant ADAR Protein NM_001025107 (ADAR1-p110) (enzyme, UniProt P55265-5 1-931, looked up)
chain: MAEIKEKICDYLFNVSDSSALNLAKNIGLTKARDINAVLIDMERQGDVYRQGTTPPIWHLTDKKRERMQIKRNTNSVPETAPAAIPETKRNAEFLTCNIPTSNASNNMVTTEKVENGQEPVIKLENRQEARPEPARLKPPVHYNGPSKAGYVDFENGQWATDDIPDDLNSIRAAPGEFRAIMEMPSFYSHGLPRCSPYKKLTECQLKNPISGLLEYAQFASQTCEFNMIEQSGPPHEPRFKFQVVINGREFPPAEAGSKKVAKQDAAMKAMTILLEEAKAKDSGKSEESSHYSTEKESEKTAESQTPTPSATSFFSGKSPVTTLLECMHKLGNSCEFRLLSKEGPAHEPKFQYCVAVGAQTFPSVSAPSKKVAKQMAAEEAMKALHGEATNSMASDNQPEGMISESLDNLESMMPNKVRKIGELVRYLNTNPVGGLLEYARSHGFAAEFKLVDQSGPPHEPKFVYQAKVGGRWFPAVCAHSKKQGKQEAADAALRVLIGENEKAERMGFTEVTPVTGASLRRTMLLLSRSPEAQPKTLPLTGSTFHDQIAMLSHRCFNTLTNSFQPSLLGRKILAAIIMKKDSEDMGVVVSLGTGNRCVKGDSLSLKGETVNDCHAEIISRRGFIRFLYSELMKYNSQTAKDSIFEPAKGGEKLQIKKTVSFHLYISTAPCGDGALFDKSCSDRAMESTESRHYPVFENPKQGKLRTKVENGEGTIPVESSDIVPTWDGIRLGERLRTMSCSDKILRWNVLGLQGALLTHFLQPIYLKSVTLGYLFSQGHLTRAICCRVTRDGSAFEDGLRHPFIVNHPKVGRVSIYDSKRQSGKTKETSVNWCLADGYDLEILDGTRGTVDGPRNELSRVSKKNIFLLFKKLCSFRYRRDLLRLSYGEAKKAARDYETAKNYFKKGLKDMGYGNWISKPQEEKNFYLCPV
stoichiometry N: 2 and 3 and 4
